Measured values taken from patent publication US7223734B2, “Plasma protein-binding ligands” (The American National Red Cross, priority 2002, dated 2007).
“And” between values parts separate entries of the source, which are not always exact repeats. Identical values can stand only once. Non-standard residues stand in square brackets, D forms with d. No end group written: not given here.

How the values were obtained:
Apo-A1 lipoprotein [1] = assay: Preparation of fibrinogen- and Apo-A1-depleted plasma: Apo-A1 in flow-through (Example 5); type: binding, human
Protocol: (§1) Toyopearl AF Amino 650M resin displaying a peptide consisting essentially of the amino acid sequence D-ARQFDF (SEQ ID NO: 20) was suspended for 2 hours in 20% methanol. After washing with distilled water, the resin was packed into an Omni column (column volume (CV)=10 ml; diameter 1.5 cm; CF 1.77 cm^2) and equilibrated in 0.14 M NaCl, 0.020 M sodium citrate, pH 7.0 (EQ buffer). Fifty milliliters of filtered plasma (0.80 mm, Nalgene CN, Cat. No. 380-0080; 0.45 μm, Corning CA, Cat. No. 431155; 0.20 μm, Nalgene PES, Cat. No. 165-0020) were loaded on the Omni columns at a linear velocity (LV) of 50 cm/H (flow rate (FR)=1.5 ml/min; residence time (RT)=6.7 minutes). The flow-through was collected in column volumes. After pooling fibrinogen-depleted plasma (50 ml), the flow-through was loaded onto a column comprising a resin displaying an Apo-A1 lipoprotein-binding ligand (D-WWLHIN (SEQ ID NO: 33)), as described below. The fibrinogen-binding column was washed with 12 CVs of EQ buffer and the fibrinogen eluted with 10 CVs of 0.3 M glycine, 0.5 M NaCl, pH 9.0. The column was regenerated with 10 CVs of 2% Sarkosyl, pH 8.0, followed by 10 CVs of 2.0 M guanidine (GuHCl). After washing with 5 CVs of distilled water, the column was further cleaned with 6 CVs of 30% ethanol and 6 CVs of 70% ethanol containing 2% acetic acid. […]

fibrinogen [2] = target: T1, fibrinogen (Homo sapiens, UniProt P02671+P02675+P02679); assay: Preparation of fibrinogen- and Apo-A1-depleted plasma: fibrinogen capture (Example 5); type: binding; details: nephelometric and clotting analysis
T1 construct: from tissue; host or cells: human plasma
T1 sequence (P02671 20-629 limits assumed): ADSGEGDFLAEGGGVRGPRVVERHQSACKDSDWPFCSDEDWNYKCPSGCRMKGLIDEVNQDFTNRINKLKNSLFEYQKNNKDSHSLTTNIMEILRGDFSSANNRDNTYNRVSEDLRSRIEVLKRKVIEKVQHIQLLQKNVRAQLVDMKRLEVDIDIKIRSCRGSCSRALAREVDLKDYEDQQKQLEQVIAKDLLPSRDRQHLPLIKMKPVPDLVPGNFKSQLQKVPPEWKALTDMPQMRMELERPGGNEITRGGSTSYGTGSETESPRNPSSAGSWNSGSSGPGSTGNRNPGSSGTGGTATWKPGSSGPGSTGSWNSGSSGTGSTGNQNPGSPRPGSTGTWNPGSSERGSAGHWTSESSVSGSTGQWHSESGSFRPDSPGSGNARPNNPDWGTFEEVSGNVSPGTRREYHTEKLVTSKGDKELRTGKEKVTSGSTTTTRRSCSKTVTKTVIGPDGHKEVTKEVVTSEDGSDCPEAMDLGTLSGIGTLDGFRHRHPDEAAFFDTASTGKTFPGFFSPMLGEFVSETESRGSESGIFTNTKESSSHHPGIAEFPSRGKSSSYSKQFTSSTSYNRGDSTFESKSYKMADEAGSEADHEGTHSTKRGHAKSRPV
T1 sequence (P02675 31-491): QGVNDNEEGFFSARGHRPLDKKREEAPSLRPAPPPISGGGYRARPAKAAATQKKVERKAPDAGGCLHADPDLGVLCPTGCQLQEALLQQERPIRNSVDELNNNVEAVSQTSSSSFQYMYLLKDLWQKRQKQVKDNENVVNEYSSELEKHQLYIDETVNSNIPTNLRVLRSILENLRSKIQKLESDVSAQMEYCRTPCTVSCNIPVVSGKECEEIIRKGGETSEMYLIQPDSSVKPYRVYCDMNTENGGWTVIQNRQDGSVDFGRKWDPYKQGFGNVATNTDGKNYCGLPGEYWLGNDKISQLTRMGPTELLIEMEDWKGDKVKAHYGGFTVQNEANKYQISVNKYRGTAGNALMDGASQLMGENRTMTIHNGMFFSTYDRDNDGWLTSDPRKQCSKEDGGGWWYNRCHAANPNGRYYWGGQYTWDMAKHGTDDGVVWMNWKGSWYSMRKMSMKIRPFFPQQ
T1 sequence (P02679 27-433 limits assumed): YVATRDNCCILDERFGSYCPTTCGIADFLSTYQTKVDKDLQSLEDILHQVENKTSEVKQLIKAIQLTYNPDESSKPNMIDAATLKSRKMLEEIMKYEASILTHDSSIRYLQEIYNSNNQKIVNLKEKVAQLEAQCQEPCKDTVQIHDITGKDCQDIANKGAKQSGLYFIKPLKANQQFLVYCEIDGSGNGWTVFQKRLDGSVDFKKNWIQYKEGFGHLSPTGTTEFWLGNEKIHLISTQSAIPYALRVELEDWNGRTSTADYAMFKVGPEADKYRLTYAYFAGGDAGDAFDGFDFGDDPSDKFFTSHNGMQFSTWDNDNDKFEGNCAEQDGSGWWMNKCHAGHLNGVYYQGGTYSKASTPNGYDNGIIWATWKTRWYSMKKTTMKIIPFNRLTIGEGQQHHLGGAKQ
Protocol: as §1

fibrinogen [3] = target: T1, fibrinogen; assay: Purification of fibrinogen from plasma by affinity chromatography on D-ARQFDF resin (Example 2); type: binding
Protocol: ToyoPearl AF-Amino 650 M resin beads displaying dried D-ARQFDF (SEQ ID NO: 20) peptide via an epsilon amino caproic acid (EACA) spacer were suspended in 20% methanol for a minimum of 2 hours before equilibration in 0.12–0.15 M NaCl, 0.020 M sodium citrate, pH 6.5–7.5. For 2.0–2.1 ml columns, about […] of resin was obtained. The resin was subsequently packed in an Omni Column of 1.0–1.5 cm diameter and evaluated either on an ÄKTAExplorer System or BIO RAD BioLogic LP. Optical density at 280 nm–320 nm and conductivity was constantly monitored during the evaluations. Flow rates were selected according to column size to achieve linear velocities of 30–60 cm/hour and residence times between 5–8 minutes.
All evaluations were performed at room temperature with cryo-rich plasma that had been 0.8 μm and 0.45 μm filtered. A linear velocity (LV) of […] was maintained throughout the experiments. Fifty milliliters of plasma was applied at 1.5 ml/min (RT=6.7) onto 10 ml column (height 5.7 cm, CF=1.77 cm^2) that had been equilibrated with 0.14 M NaCl, 0.020 M sodium citrate, pH 7.0 (EQ buffer). After the column was washed with EQ buffer to baseline, the fibrinogen was eluted with 0.3 M glycine, 0.5 M NaCl at pH 9.0 (10 CV). The column was regenerated with 2% Sarkosyl, 2.0 M guanidine-HCl, 30% ethanol, followed by a 70% ethanol/2% acetic acid mixture and stored in 20% methanol.

API = target: T2, API (Homo sapiens, UniProt P01009); assay: Preparation of fibrinogen- and Apo-A1-depleted plasma: API in flow-through (Example 5); type: binding; details: after chromatography on the named resin
T2 construct: from tissue; host or cells: human plasma (whole, fibrinogen-depleted or F1-Apo-depleted)
T2 sequence (P01009 25-418): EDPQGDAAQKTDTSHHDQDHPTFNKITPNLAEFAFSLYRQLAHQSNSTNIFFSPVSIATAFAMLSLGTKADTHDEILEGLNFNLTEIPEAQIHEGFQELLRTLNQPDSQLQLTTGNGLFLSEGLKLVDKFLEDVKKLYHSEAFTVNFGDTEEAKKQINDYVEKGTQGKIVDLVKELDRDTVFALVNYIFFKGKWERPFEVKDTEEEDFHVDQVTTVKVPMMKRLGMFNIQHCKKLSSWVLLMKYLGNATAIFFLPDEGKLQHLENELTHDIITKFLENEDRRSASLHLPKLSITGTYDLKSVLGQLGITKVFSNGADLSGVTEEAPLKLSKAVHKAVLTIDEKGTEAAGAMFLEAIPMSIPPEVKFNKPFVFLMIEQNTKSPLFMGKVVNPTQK
Protocol: as §1

fibrinogen [4] = target: T1, fibrinogen; assay: Purification of fibrinogen from plasma on HWQ resin column (Example 3); type: binding
Protocol: Five milliliters of plasma was applied at a flow rate of 0.2 ml/min. onto a 0.8 ml column (RT=4.0 min) containing a resin displaying the HWQ ligand, and was equilibrated with 0.14 M NaCl, 0.020M sodium citrate, pH 7.0 (EQ buffer). After washing the resin with EQ buffer and 0.5 M NaCl, pH 7.0, to baseline, the bound fibrinogen was eluted with 2.0 M NaCl, pH 7.0 or 0.3 M glycine, 0.5M NaCl, pH 9.0. All of the wash and elution buffers contained 0.020 M sodium citrate. […] However, dynamic resin capacities of 5–8 mg were reached. The resin was regenerated with 2 M guanidine-HCl, 2% Sarkosyl, 30% ethanol and 70% ethanol/2% acetic acid, followed by storage in 20% methanol.

Apo-A1 lipoprotein [5] = target: T3, Apo-A1 lipoprotein (Homo sapiens, UniProt P02647); assay: Apo-A1 lipoprotein purification from fibrinogen-depleted plasma on peptide resin column (Example 4); type: binding
T3 construct: from tissue; host or cells: human plasma (whole or fibrinogen-depleted)
T3 sequence (P02647 25-267 limits assumed): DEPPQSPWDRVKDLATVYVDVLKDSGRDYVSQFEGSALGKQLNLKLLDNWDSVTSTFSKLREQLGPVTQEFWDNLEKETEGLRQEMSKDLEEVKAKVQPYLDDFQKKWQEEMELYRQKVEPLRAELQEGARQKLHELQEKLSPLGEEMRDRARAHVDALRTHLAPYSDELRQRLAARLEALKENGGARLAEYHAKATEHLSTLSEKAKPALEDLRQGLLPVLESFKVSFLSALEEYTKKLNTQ
Protocol: Apo-A1 lipoprotein purification was accomplished with D-WWLHIN (SEQ ID NO: 33) peptides and several analogs. Indeed, about 100% Apo-A1 lipoprotein depletion from plasma was repeatedly obtained with D-WWLHAN (SEQ ID NO: 56) and D-WWLHIN (SEQ ID NO: […]). Fourteen milliliters of fibrinogen-depleted plasma was loaded onto a 2.3 ml column (CF=0.785 cm^2) at 0.4 ml/min. (LV=30 cm/H; RT=5.8) that had been equilibrated with 0.14 M NaCl, 0.020 M sodium citrate, pH 7.0 (EQ buffer). After the column was washed with EQ buffer to baseline, Apo-A1 lipoprotein was eluted with 2.0 M NaCl, 1% Tween-20, 0.020M sodium citrate, pH 7.0. The column was regenerated with 2.0 M guanidine-HCl, 2% Sarkosyl, and 2% acetic acid and stored in 20% methanol.

paraoxonase [6] = details: without use of detergent
Excerpt: Paraoxonase, or any plasma protein, can be recovered from the isolated or purified peptide of the invention coupled to a bead (i.e., a support) by several different approaches, including washing beads with buffers with high and low ionic strength, high and low pH, or buffers comprising up to 50% of ethylene glycol and different detergents.

paraoxonase [7] = details: after 1 hour incubation with resin at 37° C.; rabbit serum diluted 1/10
Protocol: Paraoxonase binding to a WWLHAN (SEQ ID NO: 56)-displaying resin was evaluated according to the following protocol. Rabbit serum diluted 1/10 times with PBS ([…]) was incubated in a rotating Eppendorf tube with 50 μl of D-WWLHAN (SEQ ID NO: 56)-displaying resin suspension containing approximately […] of resin. The resin was previously soaked in 20% methanol overnight and washed 3 times with PBS to remove the methanol traces and resuspended in paraoxonase assay buffer (20 mM Tris pH 8.0, 150 mM NaCl, and 2 mM CaCl2). After 1 hour incubation at 37° C., resin beads were precipitated by centrifugation at 8000 g for 1 min in an Eppendorf microcentrifuge. Supernatants were transferred into separate Eppendorf tubes and resin bead pellets were resuspended in equal volumes of paraoxonase assay buffer. Paraoxonase activity of resin bead suspensions and supernatant solutions was measured. In particular, 100 μl of paraoxonase assay buffer containing 100 μm of DEPFMU (a fluorogenic substrate for paraoxonase detection) was mixed with […] of supernatant or 10 μl of resin bead suspension, or the original serum solution in a standard microtiter plate well. After thorough mixing, the plate solution was incubated for 20 minutes at 37° C. Hydrolysis of DEPFMU was quantified by measuring the fluorescence level at […] using a commercial fluorometer. The level of fluorescence correlates with the level of 6,8-difluoro-4-methylumbelliferyl released from DEPFMU as a result of paraoxonase-mediated hydrolysis. The actual amount of 6,8-difluoro-4-methylumbelliferyl released in the assay can be calibrated with a known amount of 6,8-difluoro-4-methylumbelliferyl.
Several different D-WWLHIN (SEQ ID NO: 33) analogs were screened for the ability to bind to paraoxonase under the conditions described in Example 7. For this experiment, the following resins were tested: WWLHAN (SEQ ID NO: 56), AWLHIN (SEQ ID NO: 59), WALHIN (SEQ ID NO: 60), WWAHIN (SEQ ID NO: 61), WWLHIA (SEQ ID NO: 63), WYLHIN (SEQ ID NO: 35), WWLFIN (SEQ ID NO: 36), and na1′WLHIN (SEQ ID NO: 40).

Substance	Apo-A1 lipoprotein detected in the flow-through (Apo-A1 lipoprotein [1]; after treatment with the named resin)	fibrinogen captured (fibrinogen [2])	Total Fibrinogen (fibrinogen [3]; Elution, plasma load 51 mg)	Fibrinogen (fibrinogen [3]; Flow thru + Post wash, fibrinogen antigen (nephelometric analysis), plasma load 25 ml, 2.04 mg/ml)	runs with minimal changes in performance, dynamic resin capacity, or purity of fibrinogen eluates (fibrinogen [3]; resin reuse)	dynamic resin capacity (fibrinogen [3]; resin-to-plasma ratios of 1:3.5 to 1:4.5, peptide ligand densities 0.67–0.94 mmol/g resin)	API recovered in the flow-through (API)	elution of bound fibrinogen (fibrinogen [4]; 2.0 M NaCl, pH 7.0 or 0.3 M glycine, 0.5M NaCl, pH 9.0)	dynamic resin capacities (fibrinogen [4]; 5 ml plasma on 0.8 ml column)	Apo-A1 lipoprotein detection after treating with the resin (Apo-A1 lipoprotein [1]; nephelometry and SDS-PAGE analysis)	Apo-A1 lipoprotein depletion from plasma (Apo-A1 lipoprotein [5])	paraoxonase activity eluted from the beads into the supernatant (paraoxonase [6])	original paraoxonase activity remaining in the serum (paraoxonase [7])
D-ARQFDF ([dA]RQFDF; not fully specified (residues 2, 3, 4, 5, 6, C-terminus))	Ninety	100%	54 mg and 46 mg	<0.15 mg/mL	over 15 runs	6–8 g/L of resin	100%	–	–	–	–	–	–
HWQ	–	–	–	–	–	–	–	Complete elution of fibrinogen was not achieved	5 to 8 mg	–	–	–	–
WWLHAN ([dW]WLHAN; not fully specified (residues 2, 3, 4, 5, 6)) [D-WWLHAN]	–	–	–	–	–	–	90–95%	–	–	no Apo-A1 lipoprotein could be detected	about 100%	No paraoxonase activity was eluted	less than 4%
